Assay results: patent US20090291081A1 (AbbVie / Abbott, published 2009)

B1: ABT1-95-35 (other)
VL: DIQMTQSPSSLSASVGDRVTITCRASGPIVRNLRWYQQKPGKAPKLLIYSSSYLEPGVPSRFSGSGSGTDFTLTISSLQPEDFATYHCQQGYRWPVTFGQGTKVEIKR
notes: VK dAb
B2: ABT1-95-39 (other)
VL: DIQMTQSPSSLSASVGDRVTITCRASQPIVRNLRWYQQKPGKAPKLLIYSSSYLEPGVPSRFSGSGSGTDFTLTISGLQPEDFATYHCQQGYRWPVTFGQGTKVEIKR
notes: VK dAb
B3: ABT1-95-42 (other)
VL: DIQMTQSPSSLSASVGDRVTITCRASFPIVRNLRWYQQKPGKAPKLLIYSSSYLEPGVPSRFSGSGSGTDFTLTISSLQPEDFATYHCQQGYRWPVTFGQGTKVEIKR
notes: VK dAb
B4: ABT1-95-46 (other)
VL: DIQMTQSPSSLSASVGDRVTITCRASSPIVQNLRWYQQKPGKAPKLLIYSSSYLEPGVPSRFSGSGSGTDFTLTISSLQPEDFATYHCQQGYRWPVTFGQGTKVEIKR
notes: VK dAb
B5: ABT1-95-50 (other)
VL: DIQMTQSPSSLSASVGDRVTITCRASQPIPRNLRWYQQKPGKAPKLLIYSSSYLEPGVPSRFSGSGSGTDFTLTISSLQPEDFATYHCQQGYRWPVTFGQGTKVEIKR
notes: VK dAb
B6: ABT1-95-52 (other)
VL: DIQMTQSPSSLSASVGDRVTITCRASQPIVSNLRWYQQKPGKAPKLLIYSSSYLEPGVPSRFSGSGSGTDFTLTISSLQPEDFATYHCQQGYRWPVTFGQGTKVEIKR
notes: VK dAb
B7: ABT1-95-53 (other)
VL: DIQMTQSPSSLSASVGDRVTITCRASQPIVANLRWYQQKPGKAPKLLIYSSSYLEPGVPSRFSGSGSGTDFTLTISSLQPEDFATYHCQQGYRWPVTFGQGTKVEIKR
notes: VK dAb
B8: ABT1-95-54 (other)
VL: DIQMTQSPSSLSASVGDRVTITCRASQPIVTNLRWYQQKPGKAPKLLIYSSSYLEPGVPSRFSGSGSGTDFTLTISSLQPEDFATYHCQQGYRWPVTFGQGTKVEIKR
notes: VK dAb
B9: ABT1-95-55 (other)
VL: DIQMTQSPSSLSASVGDRVTITCRASQPIVHNLRWYQQKPGKAPKLLIYSSSYLEPGVPSRFSGSGSGTDFTLTISSLQPEDFATYHCQQGYRWPVTFGQGTKVEIKR
notes: VK dAb
B10: ABT1-95-57 (other)
VL: DIQMTQSPSSLSASVGDRVTITCRASQPIVENLRWYQQKPGKAPKLLIYSSSYLEPGVPSRFSGSGSGTDFTLTISSLQPEDFATYHCQQGYRWPVTFGQGTKVEIKR
notes: VK dAb
B11: ABT1-95-58 (other)
VL: DIQMTQSPSSLSASVGDRVTITCRARQPIVSNLRWYQQKPGKAPKLLIYSSSYLEPGVPSRFSGSGSGTDFTLTISSLQPEDFATYHCQQGYRWPVTFGQGTKVEIKR
notes: VK dAb
B12: ABT1-95-59 (other)
VL: DIQMTQSPSSLSASVGDRVTITCRASQPIVKNLRWYQQKPGKAPKLLIYSSSYLEPGVPSRFSGSGSGTDFTLTISSLQPEDFATYHCQQGYRWPVTFGQGTKVEIKR
notes: VK dAb
B13: ABT1-95-60 (other)
VL: DIQMTQSPASLSASVGDRVTITCRASQPIVANLRWYQQKPGKAPKLLIYSSSYLEPGVPSRFSGSGSGTDFTLTISSLQPEDFATYHCQQGYRWPVTFGQGTKVEIKR
notes: VK dAb
B14: ABT1-95-63 (other)
VL: DIQMTQSPSSLSASVGDRVTITCRASQPIVRNLRWYQQKLGKAPKLLIFSSSYLEPGVPSRFSGSGSGTDFTLTISSLQPEDFATYHCQQGYRWPVTFGQGTKVEIKR
notes: VK dAb
B15: ABT1-95-65 (other)
VL: DIQMTQSPSSLSASVGDRVTITCRASQPIVRNLRWYQQKPGKAPKLLIYGSSYLEPGVPSRFSGSGSGTDFTLTISSLQPEDFATYHCQQGYRWPVTFGQGTKVEIKR
notes: VK dAb
B16: ABT1-95-69 (other)
VL: DIQMTQSPSSLSASVGDRVTITCRASQPIVRNLRWYQQKPGKAPKLLIYKSSYLEPGVPSRFSGSGSGTDFTLTISSLQPEDFATYHCQQGYRWPVTFGQGTKVEIKR
notes: VK dAb
B17: ABT1-95-70 (other)
VL: DIQMTQSPSSLSASVGDRVTITCRASQPIVRNLRWYQQKPGKAPKLLVYGSSYLEPGVPSRFSGSGSGTDFTLTISSLQPEDFATYHCQQGYRWPVTFGQGTKVEIKR
notes: VK dAb
B18: ABT1-95-71 (other)
VL: DIQMTQSPSSLSASVGDRVTITCRASQPIVRNLRWYQQKPGKAPKLLIYNSSYLEPGVPSRFSGSGSGTDFTLTISSLQPEDFATYHCQQGYRWPVTFGQGTKVEIKR
notes: VK dAb
B19: ABT1-95-72 (other)
VL: DIQMTQSPSSLSASVGDRVTITCRASQPIVRNLRWYQQKPGKAPKLLIYHSSYLEPGVPSRFSGSGSGTDFTLTISSLQPEDFATYHCQQGYRWPVTFGQGTKVEIKR
notes: VK dAb
B20: ABT1-95-73 (other)
VL: DIQMTQSPSSLSASVGDRVTITCRASQPIVRNLRWYQQKPGKAPKLLIYQSSYLEPGVPSRFSGSGSGTDFTLTISSLQPEDFATYHCQQGYRWPVTFGQGTKVEIKR
notes: VK dAb
B21: ABT1-95-74 (other)
VL: DIQMTQSPSSLSASVGDRVTITCRASQPIVRNLRWYQQRPGKAPKLLIYSGSYLEPGVPSRFSGSGSGTDFTLTISSLQPEDFATYHCQQGYRWPVTFGQGTKVEIKR
notes: VK dAb
B22: ABT1-95-75 (other)
VL: DIQMTQSPSSLSASVGDRVTITCRASQPIVRNLRWYQQKPGKAPKLLIYSASYLEPGVPSRFSGSGSGTDFTLTISSLQPEDFATYHCQQGYRWPVTFGQGTKVEIKR
notes: VK dAb
B23: ABT1-95-76 (other)
VL: DIQMTQSPSSLSASVGDRVTITCRASQPIVRNLRWYQQKPGKAPKLLIYSGSYLEPGVPSRFSGSGSGTDFTLTISSLQPEDFATYHCQQGYRWPVTFGQGTKVEIKR
notes: VK dAb
B24: ABT1-95-77 (other)
VL: DIQMTQSPSSLSASVGDRVTITCRASQPIVRNLRWYQQKPGKAPELLIYSGSYLEPGVPSRFSGSGSGTDFTLTISSLQPEDFATYHCQQGYRWPVTFGQGTKVEIKR
notes: VK dAb
B25: ABT1-95-78 (other)
VL: DIQMTQSPSSLSASVGDRVTITCRASQPIVRNLRWYQQKPGKAPKLLIYSESYLEPGVPSRFSGSGSGTDFTLTISSLQPEDFATYHCQQGYRWPVTFGQGTKVEIKR
notes: VK dAb
B26: ABT1-95-83 (other)
VL: DIQMTQSPSSLSASVGDRVTITCRASQPIVRNLRWYQQKPGKAPKLLIYSSSYLEPGVPPRFSGSGSGTDFTLTISSLQPEDFATYHCQQGYRWPVTFGQGTKVEIKR
notes: VK dAb
B27: ABT1-95-87 (other)
VL: DIQMTQSPSSLSASVGDRVTITCRASQPIVRNLRWYQQKPGKAPKLLIYSSSRLEPGVPSRFSGSGSGTDFTLTISSLQPEDFATYHCQQGYRWPVTFGQGTKVEIKR
notes: VK dAb
B28: ABT1-95-89 (other)
VL: DIQMTQSPSSLSASVGDRVTITCRASQPIVRNLRWYQQKPGKAPKLLIYSSSLLEPGVPSRFSGSGSGTDFTLTISSLQPEDFATYHCQQGYRWPVTFGQGTKVEIKR
notes: VK dAb
B29: ABT1-95-90 (other)
VL: DIQMTQSPSSLSASVGDRVTITCRASQPIVRNLRWYQQKPGKAPKLLIYSSSQLEPGVPSRFSGSGSGTDFTLTISSLQPEDFATYHCQQGYRWPVTFGQGTKVEIKR
notes: VK dAb
B30: ABT1-95-91 (other)
VL: DIQMTQSPSSLSASVGDRVTITCRASQPIVRNLRWYQQKPGKAPKLLIYSSSNLEPGVPSRFSGSGSGTDFTLTISSLQPEDFATYHCQQGYRWPVTFGQGTKVEIKR
notes: VK dAb
B31: ABT1-95-93 (other)
VL: DIQMTQSPSSLSASVGDRVTITCRASQPIVRNLRWYQQKPGKAPKLLIYSSSILEPGVPSRFSGGGSGTDFTLTISSLQPEDFATYHCQQGYRWPVTFGQGTKVEIKR
notes: VK dAb
B32: ABT1-95-94 (other)
VL: DIQMTQSPSSLSASVGDRVTITCRASQPIVRNLRWYQQKPGKAPKLLIYSSSSLEPGVPSRFSGSGSGTDFTLTISSLQPEDFATYHCQQGYRWPVTFGQGTKVEIKR
notes: VK dAb
B33: ABT1-95-95 (other)
VL: DIQMIQSPSSLSASVGDRVTITCRASQPIVRNLRWYQQKPGKAPKLLIYSSSQLEPGVPSRFSGSGSGTDFTLTISSLQPEDFATYHCQQGYRWPVTFGQGTKVEIKR
notes: VK dAb
B34: ABT1-95-96 (other)
VL: DIQMTQSPSSLSASVGDRVTIACRASQPIVRNLRWYQQKPGKAPKLLIYSSSRLEPGVPSRFSGSGSGTDFTLTISSLQPEDFATYHCQQGYRWPVTFGQGTKVEIKR
notes: VK dAb
B35: ABT1-95-98 (other)
VL: DIQMTQSPSSLSASVGDRVTITCRASQPIVRNLRWYQQKPGKAPKLLIYSSSALEPGVPSRFSGSGSGTDFTLTISSLQPEDFATYHCQQGYRWPVTFGQGTKVEIKR
notes: VK dAb
B36: ABT1-95-101 (other)
VL: DIQMTQSPSSLSASVGDRVTITCRASQPIVRNLRWYQQKPGKAPKLLVYSSSLLEPGVPSRFSGSGSGTDFTLTISSLQPEDFATYHCQQGYRWPVTFGQGTKVEIKR
notes: VK dAb

These binders were tested against T1, human IL-1α (human, UniProt P01583 113-271) (assay: Table 62 IC50; RBA presumed).
T1 construct: also called IL-1alpha; hIL-1α
T1 sequence (looked up): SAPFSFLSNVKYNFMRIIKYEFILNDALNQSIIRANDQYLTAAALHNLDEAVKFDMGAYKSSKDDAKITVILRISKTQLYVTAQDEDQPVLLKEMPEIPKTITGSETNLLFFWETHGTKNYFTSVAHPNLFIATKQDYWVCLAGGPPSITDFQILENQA

Binder | IC50 [nM]
B1 | 0.2
B2 | 0.2
B3 | 0.1
B4 | 0.8
B5 | 0.5
B6 | 1
B7 | 0.3
B8 | 1
B9 | 0.6
B10 | 0.6
B11 | 0.6
B12 | 0.3
B13 | 0.7
B14 | 0.6
B15 | 0.2
B16 | 1
B17 | 0.1
B18 | 1

Binder | IC50 [nM]
B19 | 1
B20 | 3
B21 | 0.3
B22 | 0.3
B23 | 0.3
B24 | 0.3
B25 | 0.3
B26 | 0.2
B27 | 0.2
B28 | 0.3
B29 | 0.5
B30 | 0.3
B31 | 0.1
B32 | 0.1
B33 | 0.3
B34 | 0.1
B35 | 0.8
B36 | 0.5
